Measured values: patent US20100169988A1 (published 2010)

B1: ATP synthase alpha chain; mitochondrial precursor (enzyme, mouse, UniProt Q03265 44-553, looked up)
chain: QKTGTAEMSSILEERILGADTSVDLEETGRVLSIGDGIARVHGLRNVQAEEMVEFSSGLKGMSLNLEPDNVGVVVFGNDKLIKEGDVVKRTGAIVDVPVGEELLGRVVDALGNAIDGKGPIGSKTRRRVGLKAPGIIPRISVREPMQTGIKAVDSLVPIGRGQRELIIGDRQTGKTSIAIDTIINQKRFNDGTDEKKKLYCIYVAIGQKRSTVAQLVKRLTDADAMKYTIVVSATASDAAPLQYLAPYSGCSMGEYFRDNGKHALIIYDDLSKQAVAYRQMSLLLRRPPGREAYPGDVFYLHSRLLERAAKMNDSFGGGSLTALPVIETQAGDVSAYIPTNVISITDGQIFLETELFYKGIRPAINVGLSVSRVGSAAQTRAMKQVAGTMKLELAQYREVAAFAQFGSDLDAATQQLLSRGVRLTELLKQGQYSPMAIEEQVAVIYAGVRGYLDKLEPSKITKFENAFLSHVISQHQSLLGNIRSDGKISEQSDAKLKEIVTNFLAGFEP
B2: Tubulin beta-4 chain (other, mouse, UniProt Q9D6F9 1-444, looked up)
chain: MREIVHLQAGQCGNQIGAKFWEVISDEHGIDPTGTYHGDSDLQLERINVYYNEATGGNYVPRAVLVDLEPGTMDSVRSGPFGQIFRPDNFVFGQSGAGNNWAKGHYTEGAELVDAVLDVVRKEAESCDCLQGFQLTHSLGGGTGSGMGTLLISKIREEFPDRIMNTFSVVPSPKVSDTVVEPYNATLSVHQLVENTDETYCIDNEALYDICFRTLKLTTPTYGDLNHLVSATMSGVTTCLRFPGQLNADLRKLAVNMVPFPRLHFFMPGFAPLTSRGSQQYRALTVPELTQQMFDAKNMMAACDPRHGRYLTVAAVFRGRMSMKEVDEQMLSVQSKNSSYFVEWIPNNVKTAVCDIPPRGLKMAATFIGNSTAIQELFKRISEQFTAMFRRKAFLHWYTGEGMDEMEFTEAESNMNDLVSEYQQYQDATAEEGEFEEEAEEEVA
notes: also called TBB4_MOUSE
B3: Myosin light chain kinase 2, skeletal/cardiac muscle (MLCK2) (Fragment) (enzyme, mouse, UniProt Q8VCR8 1-613, looked up)
chain: MTTENGAVELGSQSLSTEQTPKAAAGDGPSASEKEPSAPATEKDLSPPNAKKDPGAPDPKNNPDPPSLKKDPAKAPGPEKKGDPVPASASSQGPSGEGDGGGGPAEGSEGPPAALPLPTATAEASIQKLDPTQAPSGNQGSGEAKAGKKAAECREAGRRGSPAFLHSPSCPAIISCSEKTLAVKPLSETTDLVFTGVSVTPDPQDPGPVKAGGTNALAEKKKEEAEKASGQAGQAKVQGDTPQRIGFQAVPSERVEVGQALCLTAREEDCFQILDDCPPPPAPFPHRIVELRTGNVNSEFSMNSKEALGGGKFGAVCTCTERATGLKLAAKVIKKQTPKDKEMVLLEIEVMNQLNHRNLIQLYAAIETSHEIILFMEYIEGGELFERIVDEDYHLTEVDTMVFVRQICDGILFMHKMRVLHLDLKPENILCVNTTGHLVKIIDFGLARRYNPNEKLKVNFGTPEFLSPEVVNYDQISDKTDMWSLGVITYMLLSGLSPFLGDDDTETLNNVLSANWYFDEETFEAVSDEAKDFVSNLLTKDQSARMSAEQCLAHPWLNNLAEKAKRCNRRLKSQILLKKYLMKRRWKKNFIAVSAANRFKKISSSGALMALGV
notes: also called MYLK2_MOUSE
B4: Superoxide dismutase [Cu-Zn] (enzyme)
chain: not shown
B5: 14-3-3 protein theta (14-3-3 protein tau) (other, mouse, UniProt P68254 1-245, looked up)
chain: MEKTELIQKAKLAEQAERYDDMATCMKAVTEQGAELSNEERNLLSVAYKNVVGGRRSAWRVISSIEQKTDTSDKKLQLIKDYREKVESELRSICTTVLELLDKYLIANATNPESKVFYLKMKGDYFRYLAEVACGDDRKQTIENSQGAYQEAFDISKKEMQPTHPIRLGLALNFSVFYYEILNNPELACTLAKTAFDEAIAELDTLNEDSYKDSTLIMQLLRDNLTLWTSDSAGEECDAAEGAEN
notes: also called 14-3-3 θ
B6: 14-3-3 protein eta (other, mouse, UniProt P68510 2-246, looked up)
chain: GDREQLLQRARLAEQAERYDDMASAMKAVTELNEPLSNEDRNLLSVAYKNVVGARRSSWRVISSIEQKTMADGNEKKLEKVKAYREKIEKELETVCNDVLALLDKFLIKNCNDFQYESKVFYLKMKGDYYRYLAEVASGEKKNSVVEASEAAYKEAFEISKEHMQPTHPIRLGLALNFSVFYYEIQNAPEQACLLAKQAFDDAIAELDTLNEDSYKDSTLIMQLLRDNLTLWTSDQQDEEAGEGN
notes: also called 14-3-3 η
B7: Excitatory amino acid transporter 1 (Sodium-dependent glutamate/aspartate transporter) (GLAST) (other, mouse, UniProt P56564 1-543, looked up)
chain: MTKSNGEEPRMGGRMERLQQGVRKRTLLAKKKVQSLTKEDVKSYLFRNAFVLLTVTAVIVGTILGFALRPYKMSYREVKYFSFPGELLMRMLQMLVLPLIISSLVTGMAALDSKASGKMGMRAVVYYMTTTIIAVVIGIIIVIIIHPGKGTKENMYREGKIVQVTAADAFLDLIRNMFPPNLVEACFKQFKTSYEKRSFKVPIQSNETLLGAVINNVSEAMETLTRIREEMVPVPGSVNGVNALGLVVFSMCFGFVIGNMKEQGQALREFFDSLNEAIMRLVAVIMWYAPLGILFLIAGKIVEMEDMGVIGGQLAMYTVTVIVGLLIHAVIVLPLLYFLVTRKNPWVFIGGLLQALITALGTSSSSATLPITFKCLEENNGVDKRITRFVLPVGATINMDGTALYEALAAIFIAQVNNFDLNFGQIITISITATAASIGAAGIPQAGLVTMVIVLTSVGLPTDDITLIIAVDWFLDRLRTTTNVLGDSLGAGIVEHLSRHELKNRDVEMGNSVIEENEMKKPYQLIAQDNEPEKPVADSETKM
notes: also called EAA1_MOUSE
B8: MKIAA0820 protein (Fragment) (other, mouse, UniProt Q8BZ98 1-863, looked up)
chain: MGNREMEELIPLVNRLQDAFSALGQSCLLELPQIAVVGGQSAGKSSVLENFVGRDFLPRGSGIVTRRPLVLQLVTSKAEYAEFLHCKGKKFTDFDEVRHEIEAETDRVTGMNKGISSIPINLRVYSPHVLNLTLIDLPGITKVPVGDQPPDIEYQIRDMIMQFITRENCLILAVTPANTDLANSDALKLAKEVDPQGLRTIGVITKLDLMDEGTDARDVLENKLLPLRRGYVGVVNRSQKDIDGKKDIKAAMLAERKFFLSHPAYRHIADRMGTPHLQKVLNQQLTNHIRDTLPNFRNKLQGQLLSIEHEVEAFKNFKPEDPTRKTKALLQMVQQFAVDFEKRIEGSGDQVDTLELSGGAKINRIFHERFPFEIVKMEFNEKELRREISYAIKNIHGIRTGLFTPDMAFEAIVKKQIVKLKGPSLKSVDLVMQELINTVKKCTKRLANFPRLCEETERIVANHIREREGKTKDQVLLLIDIQVSYINTNHEDFIGFANAQQRSSQVHKKSTIGNQVIRKGWLTVSNIGIMKGGSKGYWFVLTAESLSWYKDDEEKEKKYMLPLDNLKVRDVEKGFMSSKHVFALFNTEQRNVYKDYRFLELACDSQEDVDSWKASLLRAGVYPDKSVGSNKTENDENGQAENFSMDPQLERQVETIRNLVDSYMSIINKCIRDLIPKTIMHLMINNVKDFINSELLAQLYSSEDQNTLMEESAEQAQRRDEMLRMYQALKEALAIIGDINTATVSTPAPPPVDDSWLQHSRRSPPPSPTTQRRLTISAPLPRPTSGRGPAPAIPSPGPHSGAPPVPFRPGPLPPFPNSSDSFGAPPQVPSRPTRAPPSVPSRRPPPSPTRPTIIRPLESSLLD
notes: also called Q80TR2_MOUSE
B9: Peroxiredoxin-5, mitochondrial precursor (Prx-V) (enzyme, mouse, UniProt P99029 49-210, looked up)
chain: MAPIKVGDAIPSVEVFEGEPGKKVNLAELFKGKKGVLFGVPGAFTPGCSKTHLPGFVEQAGALKAKGAQVVACLSVNDVFVIEEWGRAHQAEGKVRLLADPTGAFGKATDLLLDDSLVSLFGNRRLKRFSMVIDNGIVKALNVEPDGTGLTCSLAPNILSQL
notes: also called PRDX5_MOUSE
B10: Elongation factor 1-alpha 2 (EF-1-alpha-2) (Elongation factor 1 A-2) (eEF1A-2) (Statin S1) (other, mouse, UniProt P62631 2-463, looked up)
chain: GKEKTHINIVVIGHVDSGKSTTTGHLIYKCGGIDKRTIEKFEKEAAEMGKGSFKYAWVLDKLKAERERGITIDISLWKFETTKYYITIIDAPGHRDFIKNMITGTSQADCAVLIVAAGVGEFEAGISKNGQTREHALLAYTLGVKQLIVGVNKMDSTEPAYSEKRYDEIVKEVSAYIKKIGYNPATVPFVPISGWHGDNMLEPSPNMPWFKGWKVERKEGNASGVSLLEALDTILPPTRPTDKPLRLPLQDVYKIGGIGTVPVGRVETGILRPGMVVTFAPVNITTEVKSVEMHHEALSEALPGDNVGFNVKNVSVKDIRRGNVCGDSKADPPQEAAQFTSQVIILNHPGQISAGYSPVIDCHTAHIACKFAELKEKIDRRSGKKLEDNPKSLKSGDAAIVEMVPGKPMCVESFSQYPPLGRFAVRDMRQTVAVGVIKNVEKKSGGAGKVTKSAQKAQKAGK
notes: also called EF1A2_MOUSE

Each binder was assayed against T1, APP-TAP-AICD (human, UniProt P05067 18-695) (assay: streptavidin purification of APP-TAP-AICD from brain homogenate; iTRAQ 116/114, transgenic mouse 75 vs control mouse 72; MALDI-TOF/TOF;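 further: relative protein abundance in the transgenic versus control pull-down, limited to proteins with high quality scores and above-average enrichment, without full normalization across the whole measurement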).
Text: Shown are all proteins that have high quality scores and are enriched above average in the m75 sample. Purified bait protein is given underlined. Other already known interaction partners of AICD or putatively biologically relevant proteins are given in bold. As full normalization over the entire measurement was not possible through the GPS explorer software suite, this conservative estimate had to be taken for determining the enriched vs. the non-enriched proteins. […] Ranking is in order of abundance ratio.

Row | Binder | iTRAQ ratio
1 | B1 | 3.39
2 | B2 | 3.22

The binders below were run against T1, APP-TAP-AICD (assay: streptavidin purification of APP-TAP-AICD from brain homogenate; LTQ-FT semiquantitative method, transgenic mouse 75 vs control mouse 72).

Row | Binder | probability that this protein is enriched
3 | B3 | 1
4 | B4 | 1
5 | B5 | 1
6 | B6 | 1
7 | B7 | 1
8 | B8 | 1
9 | B9 | 1
10 | B10 | 1
